Numbering of substitutions follows the chain as printed. Names may count otherwise.
T1: human PAC1 receptor extracellular domain (ECD) (human, UniProt P41586 24-153)
T1 construct: also called PAC1 receptor ECD; PAC1 ECD
T1 sequence: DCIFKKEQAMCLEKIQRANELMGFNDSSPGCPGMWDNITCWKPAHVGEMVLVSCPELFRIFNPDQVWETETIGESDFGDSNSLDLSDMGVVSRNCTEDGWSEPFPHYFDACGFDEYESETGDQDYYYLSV

B1: anti-CGRP receptor variant 11, yeast-displayed Fab (Fab, V domains shown)
VH: QVQLVESGGGVVQPGRSLRLSCAASGFWFDTFGMHWVRQAPGKGLEWVAVISFAGEDTHYVDSVKGRFTISRDNSKNTLFLQMNSLRAEDTAVYYCARDRLNYYESYGYYGYHYYGMAVWGQGTTVTVSS
VL: QSVLTQPPSVSAAPGQKVTISCSGSRSNIGRYSVSWYQQLPGTAPKLLIYENMFRPRGIPDRFSGSKSGTSATLGITGLQTGDEADYYCGTWDYRMQAVVFGGGTKLTVLG
notes: also called Variant Ab ID 11
B2: anti-CGRP receptor variant 08, yeast-displayed Fab (Fab, V domains shown)
VH: QVQLVESGGGVVQPGRSLRLSCAASGFTFSSFGMHWVRQAPGKGLEWVAVISFDGSIKYSVDSVKGRFTISRDNSKNTLFLQMNSLRAEDTAVYYCARDRLNYYESSGYYHYKYYGMAVWGQGTTVTVSS
VL: QSVLTQPPSVSAAPGQKVTISCSGSYSNIGWWPVSWYQQLPGTAPKLLIYDNNKRPSGIPDRFSGSKSGTSATLGITGLQTGDEADYYCGTWDSRLSAVVFGGGTKLTVLG
notes: also called Variant Ab ID 08
B3: anti-CGRP receptor variant 15, yeast-displayed Fab (Fab, V domains shown)
VH: B2 VH
VL: B2 VL with Y26S, W31N, W32N, P33Y, S94W, R95W, L96R, S97K, V100I
notes: also called Variant Ab ID 15
B4: anti-CGRP receptor variant 13, yeast-displayed Fab (Fab, V domains shown)
VH: B2 VH
VL: B2 VL with Y26R, W31R, W32R, P33T
notes: also called Variant Ab ID 13
B5: anti-CGRP receptor variant 14, yeast-displayed Fab (Fab, V domains shown)
VH: B2 VH
VL: B2 VL with Y26S, W31N, W32N, P33Y, R95W, L96H, S97R, A98V, V100T
notes: also called Variant Ab ID 14
B6: anti-CGRP receptor variant 10, yeast-displayed Fab (Fab, V domains shown)
VH: B2 VH with T28F, S30G, F32Y, D54A, S56E, K58E, Y59H, S60Y
VL: B2 VL with Y26S, W31N, W32N, P33Y
notes: also called Variant Ab ID 10
B7: anti-CGRP receptor variant 09, yeast-displayed Fab (Fab, V domains shown)
VH: B2 VH with D54A, S56E, K58D, S60Y
VL: B2 VL with Y26S, W31N, W32N, P33Y
notes: also called Variant Ab ID 09
B8: wild-type 4E4 anti-CGRP receptor monoclonal antibody (antibody, human IgG2, lambda, V domains shown)
VH: B2 VH with E105D
VL: B2 VL with Y26S, W31N, W32N, P33Y, A72T
notes: also called WT; 4E4 Ab
B9: 4E4 heavy chain D54A single-point alanine variant antibody (antibody, V domains shown)
VH: B2 VH with D54A, E105D
VL: B2 VL with Y26S, W31N, W32N, P33Y, A72T
notes: Recombinantly expressed as a monoclonal antibody
B10: 4E4 heavy chain K113A single-point alanine variant antibody (antibody, V domains shown)
VH: B2 VH with E105D, K113A
VL: B2 VL with Y26S, W31N, W32N, P33Y, A72T
notes: as for B9
B11: 4E4 light chain K67A single-point alanine variant antibody (antibody, V domains shown)
VH: B2 VH with E105D
VL: B2 VL with Y26S, W31N, W32N, P33Y, K67A, A72T
notes: as for B9
B12: 4E4 light chain R95A single-point alanine variant antibody (antibody, V domains shown)
VH: B2 VH with E105D
VL: B2 VL with Y26S, W31N, W32N, P33Y, A72T, R95A
notes: as for B9
B13: 4E4 light chain Y33A single-point alanine variant antibody (antibody, V domains shown)
VH: B2 VH with E105D
VL: B2 VL with Y26S, W31N, W32N, P33A, A72T
notes: Recombinantly expressed as a monoclonal antibody; also called L-Y33A

biological target: T1, human PAC1 receptor extracellular …; assay: yeast-displayed Fab, FACS, 10 nM PAC1 receptor ECD

Row | Binder | Mutant vs. 4E4.2 Parent B/D Ratio [fold] | Normalized Binding Signal/Display Signal (B/D) [ratio]
1 | B1 | 1.5 | 0.16
2 | B2 | 1 | 0.1
3 | B3 | 0.9 | 0.1
4 | B4 | 1 | 0.11
5 | B5 | 0.7 | 0.08
6 | B6 | 0.9 | 0.1
7 | B7 | 1.6 | 0.17

biological target: T2, soluble CGRP receptor (extracellular domains of human CRLR and human RAMP1) (human, UniProt Q16602 23-133; O60894 26-117); assay: SPR (Biacore T200), antibody captured by goat anti-human Fc, soluble CGRP receptor as analyte, 1:1 model
T2 construct: the tag and the thrombin site are not described; also called soluble human CGRP receptor; CGRP receptor ECD
T2 sequence (Q16602 23-133, chain 1 of 2): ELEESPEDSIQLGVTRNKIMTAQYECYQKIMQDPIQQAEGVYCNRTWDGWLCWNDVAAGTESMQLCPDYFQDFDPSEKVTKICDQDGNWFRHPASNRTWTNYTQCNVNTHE
T2 sequence (O60894 26-117, chain 2 of 2): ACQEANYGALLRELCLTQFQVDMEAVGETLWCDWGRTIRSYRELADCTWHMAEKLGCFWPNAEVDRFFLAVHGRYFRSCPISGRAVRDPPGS

Row | Binder | Kd [nM] | koff [s⁻¹] | kon [M⁻¹ s⁻¹]
8 | B8 | 28 | 0.00054 | 20000
9 | B9 | 180 | 0.0026 | 15000
10 | B10 | 33 | 0.0006 | 18000
11 | B11 | 29 | 0.00046 | 16000
12 | B12 | 43 | 0.00077 | 18000
13 | B13 | 11 | 0.00027 | 24000

biological target: T3, human CGRP receptor extracellular domain (ECD) (human, UniProt Q16602 23-138; O60894 27-117); assay: yeast-displayed Fab, FACS, 1 nM human CGRP receptor ECD
T3 construct: also called CGRP receptor ECD; human CGRP receptor ECD
T3 sequence (Q16602 23-138 limits assumed, chain 1 of 2): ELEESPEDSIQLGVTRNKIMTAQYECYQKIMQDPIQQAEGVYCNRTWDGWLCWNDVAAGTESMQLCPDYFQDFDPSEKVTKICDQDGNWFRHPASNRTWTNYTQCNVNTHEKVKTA
T3 sequence (O60894 27-117 limits assumed, chain 2 of 2): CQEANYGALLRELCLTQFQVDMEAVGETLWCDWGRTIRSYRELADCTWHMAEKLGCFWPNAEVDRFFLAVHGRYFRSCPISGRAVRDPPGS

Row | Binder | Mutant vs. 4E4.2 Parent B/D Ratio [fold] | Normalized Binding Signal/Display Signal (B/D) [ratio]
14 | B1 | 11 | 1.36
15 | B2 | 1.4 | 0.17
16 | B3 | 1.3 | 0.16
17 | B4 | 2.9 | 0.35
18 | B5 | 1 | 0.12
19 | B6 | 3.3 | 0.4
20 | B7 | 3 | 0.38

biological target: T4, human CGRP receptor (human CRLR / human RAMP1 heterodimer) (human, UniProt Q16602 23-461; O60894 27-148); assay: yeast-displayed Fab, FACS, detergent-solubilized lysate of human CGRP receptor-expressing cells vs blank cells
T4 construct: Full-length receptor: endogenous on SK-N-MC (HTB-10) cells in the cAMP assay; also called hCGRP receptor on SK-N-MC (HTB-10) cells; Human CGRP Receptor/AMID detergent-solubilized cell lysate
T4 sequence (Q16602 23-461 limits assumed, chain 1 of 2): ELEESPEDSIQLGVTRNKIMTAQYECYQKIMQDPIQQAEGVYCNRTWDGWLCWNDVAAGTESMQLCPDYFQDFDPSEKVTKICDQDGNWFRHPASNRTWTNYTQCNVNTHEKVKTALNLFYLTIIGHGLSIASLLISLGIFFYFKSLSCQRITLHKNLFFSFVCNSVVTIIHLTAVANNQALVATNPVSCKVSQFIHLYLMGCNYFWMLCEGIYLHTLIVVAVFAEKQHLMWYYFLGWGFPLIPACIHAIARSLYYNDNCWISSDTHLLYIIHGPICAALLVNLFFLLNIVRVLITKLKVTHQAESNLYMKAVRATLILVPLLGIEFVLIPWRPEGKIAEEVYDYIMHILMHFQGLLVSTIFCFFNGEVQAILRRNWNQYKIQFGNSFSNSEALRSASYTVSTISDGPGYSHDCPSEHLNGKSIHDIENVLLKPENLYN
T4 sequence (O60894 27-148 limits assumed, chain 2 of 2): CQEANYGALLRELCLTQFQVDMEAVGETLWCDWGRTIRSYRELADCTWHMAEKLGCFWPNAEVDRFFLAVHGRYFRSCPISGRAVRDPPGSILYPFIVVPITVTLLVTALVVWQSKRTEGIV

Row | Binder | Human CGRP Receptor/Blank Cells Specific Binding [ratio] | Mutant vs. 4E4.2 Parent Specific Binding Ratio [fold]
21 | B1 | 9.5 | 1.2
22 | B2 | 18 | 2.3
23 | B3 | 11.9 | 1.5
24 | B4 | 14.6 | 1.8
25 | B5 | 13.5 | 1.7
26 | B6 | 20.7 | 2.6
27 | B7 | 10.4 | 1.3

biological target: T5, cynomolgus monkey CGRP receptor (cynomolgus monkey, UniProt A0A2K5VQ71 34-472); assay: yeast-displayed Fab, FACS, detergent-solubilized lysate of cynomolgus CGRP receptor/HEK cells vs blank cells
T5 construct: whole, on cells; Presented as detergent-solubilized lysate of HEK cells expressing the cynomolgus receptor; also called Cyno CGRP Receptor; Cynomolgus Monkey CGRP Receptor/HEK detergent-solubilized cell lysate
T5 sequence (A0A2K5VQ71 entry or part of it): as the sequence (Q16602 23-461 limits assumed, chain 1 of 2) above, with D55N, L431V counted along it

Row | Binder | Cyno CGRP Receptor/Blank Cells Specific Binding [ratio] | Mutant vs. 4E4.2 Parent Specific Binding Ratio [fold]
28 | B1 | 5.3 | 2.8
29 | B2 | 4.9 | 2.5
30 | B3 | 4.2 | 2.2
31 | B4 | 4.8 | 2.5
32 | B5 | 2.2 | 1.1
33 | B6 | 3 | 1.6
34 | B7 | 2.3 | 1.2

biological target: T3, human CGRP receptor extracellular …; assay: yeast-displayed Fab, FACS, 10 nM human CGRP receptor ECD

Row | Binder | Mutant vs. 4E4.2 Parent B/D Ratio [fold] | Normalized Binding Signal/Display Signal (B/D) [ratio]
35 | B1 | 22 | 3.38
36 | B2 | 3.1 | 0.48
37 | B3 | 2.7 | 0.42
38 | B4 | 9.8 | 1.51
39 | B5 | 2.2 | 0.33
40 | B6 | 13.3 | 2.04
41 | B7 | 10.6 | 1.62

Reference: patent US20220363770A1 (Amgen, published 2022)
